Reference: the supplement of paper PMC9233669
Variants at the floor of the assay were thinned out.

How the values were obtained:
biotinyl-Met-oxazolone = assay: self-aminoacylation, catalytic enhancement (BMO) (fold over background); higher = more active; k-Seq, kA / k0A0; sequences stand for … in GGGAAUGGAUCCACAUCUACGAAUUC…UUCACUGCAGACUUGACGAAGCUG
Procedure, shortened: (§1)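 Mutagenized RNA pools with a 21-nt variable region (0.43 μM) reacted with each biotinyl-aminoacyl-oxazolone at 2–1250 μM. Reactions ran in 50 μL HEPES/NaCl/KCl/MgCl2/CaCl2 buffer with 5% acetonitrile, pH 6.9–7.0, for 90 minutes at room temperature. Streptavidin-captured RNA was quantified by triplicate qPCR and Illumina sequencing, and per-sequence fraction reacted was fit to a pseudo-first-order model with 1000 bootstraps. Catalytic enhancement is median kA divided by the uncatalyzed rate, the low-activity peak of a bimodal Gaussian fit.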

biotinyl-Trp-oxazolone = assay: self-aminoacylation, catalytic enhancement (BWO) (fold over background); higher = more active; k-Seq, kA / k0A0; sequences stand for … in GGGAAUGGAUCCACAUCUACGAAUUC…UUCACUGCAGACUUGACGAAGCUG
Procedure, shortened: as §1

biotinyl-Val-oxazolone = assay: self-aminoacylation, catalytic enhancement (BVO) (fold over background); higher = more active; k-Seq, kA / k0A0; sequences stand for … in GGGAAUGGAUCCACAUCUACGAAUUC…UUCACUGCAGACUUGACGAAGCUG
Procedure, shortened: as §1

biotinyl-Phe-oxazolone = assay: self-aminoacylation, catalytic enhancement (BFO) (fold over background); higher = more active; k-Seq, kA / k0A0; sequences stand for … in GGGAAUGGAUCCACAUCUACGAAUUC…UUCACUGCAGACUUGACGAAGCUG
Procedure, shortened: as §1

biotinyl-Leu-oxazolone = assay: self-aminoacylation, catalytic enhancement (BLO) (fold over background); higher = more active; k-Seq, kA / k0A0; sequences stand for … in GGGAAUGGAUCCACAUCUACGAAUUC…UUCACUGCAGACUUGACGAAGCUG
Procedure, shortened: as §1

biotinyl-Ile-oxazolone = assay: self-aminoacylation, catalytic enhancement (BIO) (fold over background); higher = more active; k-Seq, kA / k0A0; sequences stand for … in GGGAAUGGAUCCACAUCUACGAAUUC…UUCACUGCAGACUUGACGAAGCUG
Procedure, shortened: as §1

AUUACCCUGGUGGUCGAGUGA [Fam2.1 aminoacylation ribozyme variant]
self-aminoacylation (biotinyl-Met-oxazolone): 2.28
self-aminoacylation (biotinyl-Trp-oxazolone): 1.83
self-aminoacylation (biotinyl-Val-oxazolone): 1.61
self-aminoacylation (biotinyl-Phe-oxazolone): 12.8
self-aminoacylation (biotinyl-Leu-oxazolone): 1.95
self-aminoacylation (biotinyl-Ile-oxazolone): 1.47

AUUACCCUGGUUAUCGAGGGA [Fam2.1 aminoacylation ribozyme variant]
self-aminoacylation (biotinyl-Met-oxazolone): 1.4
self-aminoacylation (biotinyl-Trp-oxazolone): 1.79
self-aminoacylation (biotinyl-Val-oxazolone): 1.16
self-aminoacylation (biotinyl-Phe-oxazolone): 1.16
self-aminoacylation (biotinyl-Leu-oxazolone): 0.955
self-aminoacylation (biotinyl-Ile-oxazolone): 1.55

AUUACCCUGGUUAUCUAGUGA [Fam2.1 aminoacylation ribozyme variant]
self-aminoacylation (biotinyl-Met-oxazolone): 14.4
self-aminoacylation (biotinyl-Trp-oxazolone): 17.6
self-aminoacylation (biotinyl-Val-oxazolone): 6.4
self-aminoacylation (biotinyl-Phe-oxazolone): 93.5
self-aminoacylation (biotinyl-Leu-oxazolone): 15.3
self-aminoacylation (biotinyl-Ile-oxazolone): 5.78

AUUACCCUGUACAUCGAGUGA [Fam2.1 aminoacylation ribozyme variant]
self-aminoacylation (biotinyl-Met-oxazolone): 12.5
self-aminoacylation (biotinyl-Trp-oxazolone): 13.2
self-aminoacylation (biotinyl-Val-oxazolone): 6.19
self-aminoacylation (biotinyl-Phe-oxazolone): 71.1
self-aminoacylation (biotinyl-Leu-oxazolone): 11.6
self-aminoacylation (biotinyl-Ile-oxazolone): 5.18

AUUACCCUGUCCAUCGAGUGA [Fam2.1 aminoacylation ribozyme variant]
self-aminoacylation (biotinyl-Met-oxazolone): 10.6
self-aminoacylation (biotinyl-Trp-oxazolone): 14.8
self-aminoacylation (biotinyl-Val-oxazolone): 5.38
self-aminoacylation (biotinyl-Phe-oxazolone): 70.4
self-aminoacylation (biotinyl-Leu-oxazolone): 11.3
self-aminoacylation (biotinyl-Ile-oxazolone): 5.63

AUUACCCUGUUCAUCGAGUUA [Fam2.1 aminoacylation ribozyme variant]
self-aminoacylation (biotinyl-Met-oxazolone): 1.13
self-aminoacylation (biotinyl-Trp-oxazolone): 0.616
self-aminoacylation (biotinyl-Val-oxazolone): 1.12
self-aminoacylation (biotinyl-Phe-oxazolone): 0.909
self-aminoacylation (biotinyl-Leu-oxazolone): 1.12
self-aminoacylation (biotinyl-Ile-oxazolone): 1.19

AUUACCCUGUUCAUCGUGUGA [Fam2.1 aminoacylation ribozyme variant]
self-aminoacylation (biotinyl-Met-oxazolone): 6.29
self-aminoacylation (biotinyl-Trp-oxazolone): 8.71
self-aminoacylation (biotinyl-Val-oxazolone): 3.04
self-aminoacylation (biotinyl-Phe-oxazolone): 43.7
self-aminoacylation (biotinyl-Leu-oxazolone): 6.24
self-aminoacylation (biotinyl-Ile-oxazolone): 3.1

AUUACCCUGUUCAUGGAGUGA [Fam2.1 aminoacylation ribozyme variant]
self-aminoacylation (biotinyl-Met-oxazolone): 11.1
self-aminoacylation (biotinyl-Trp-oxazolone): 11.8
self-aminoacylation (biotinyl-Val-oxazolone): 5.28
self-aminoacylation (biotinyl-Phe-oxazolone): 62.8
self-aminoacylation (biotinyl-Leu-oxazolone): 11.4
self-aminoacylation (biotinyl-Ile-oxazolone): 5.12

AUUACCCUGUUCAUUGAGUGA [Fam2.1 aminoacylation ribozyme variant]
self-aminoacylation (biotinyl-Met-oxazolone): 13.8
self-aminoacylation (biotinyl-Trp-oxazolone): 16.3
self-aminoacylation (biotinyl-Val-oxazolone): 5.4
self-aminoacylation (biotinyl-Phe-oxazolone): 83.6
self-aminoacylation (biotinyl-Leu-oxazolone): 12.7
self-aminoacylation (biotinyl-Ile-oxazolone): 5.73

AUUACCCUUCUCAUCGAGUGA [Fam2.1 aminoacylation ribozyme variant]
self-aminoacylation (biotinyl-Met-oxazolone): 6.6
self-aminoacylation (biotinyl-Trp-oxazolone): 9.57
self-aminoacylation (biotinyl-Val-oxazolone): 3.65
self-aminoacylation (biotinyl-Phe-oxazolone): 30.8
self-aminoacylation (biotinyl-Leu-oxazolone): 6.53
self-aminoacylation (biotinyl-Ile-oxazolone): 3.51

AUUACCCUUGCCAUCGAGUGA [Fam2.1 aminoacylation ribozyme variant]
self-aminoacylation (biotinyl-Met-oxazolone): 6.18
self-aminoacylation (biotinyl-Trp-oxazolone): 7.05
self-aminoacylation (biotinyl-Val-oxazolone): 3.18
self-aminoacylation (biotinyl-Phe-oxazolone): 35.2
self-aminoacylation (biotinyl-Leu-oxazolone): 5.63
self-aminoacylation (biotinyl-Ile-oxazolone): 3.09

AUUACCCUUGUCAUCGAAUGA [Fam2.1 aminoacylation ribozyme variant]
self-aminoacylation (biotinyl-Met-oxazolone): 0.839
self-aminoacylation (biotinyl-Trp-oxazolone): 0.552
self-aminoacylation (biotinyl-Val-oxazolone): 1.09
self-aminoacylation (biotinyl-Phe-oxazolone): 0.805
self-aminoacylation (biotinyl-Leu-oxazolone): 0.89
self-aminoacylation (biotinyl-Ile-oxazolone): 0.946

AUUACCCUUGUCAUCGCGUGA [Fam2.1 aminoacylation ribozyme variant]
self-aminoacylation (biotinyl-Met-oxazolone): 10.7
self-aminoacylation (biotinyl-Trp-oxazolone): 14.3
self-aminoacylation (biotinyl-Val-oxazolone): 5.9
self-aminoacylation (biotinyl-Phe-oxazolone): 85.5
self-aminoacylation (biotinyl-Leu-oxazolone): 13.6
self-aminoacylation (biotinyl-Ile-oxazolone): 5.26
